Experimental data as given in doi:10.1101/2020.08.13.249722.

Target: …-Toyopearl (PTCH peptide, positive control)
Assay: equilibrium adsorption on peptide resin

Work on “tandem WW domain of Yes-Associated Protein 1 (WW-YAP), soluble recombinant human protein (domain or fragment)” yielded a percent of the incubated protein bound greater than 73%.
